Assay [1] concerns the target OSM-3G444E^Halo (C. elegans) (UniProt P46873). As to the kind of experiment: single-molecule colocalisation of differentially labelled proteins.
A further assay concerns the target OSM-3^SNAP (C. elegans) (UniProt P46873). The assay is described as above.

Consider “QCC with GFP-tagged IFT-52(OSM-6), G5EDF6 1-472; Q0G838 1-471; G5ED37 1-820; Q8I7G4 1-656”, for which the figures for the colocalisation efficiency (in assay [1]; with OSM-3^SNAP (C. elegans)) were 85% and 81%, respectively.

Source of the values: publication PMC5967604.
